In patent US20090018093:
Like-named read-outs stand apart in the source and are kept apart here.

Tested on: Immunoglobulin E (IgE) (Homo sapiens), P01854-1
Test: filter

Chain of Immunoglobulin E (IgE) (Homo sapiens), P01854-1 (P01854 other isoform, or with tags, fused parts or gaps): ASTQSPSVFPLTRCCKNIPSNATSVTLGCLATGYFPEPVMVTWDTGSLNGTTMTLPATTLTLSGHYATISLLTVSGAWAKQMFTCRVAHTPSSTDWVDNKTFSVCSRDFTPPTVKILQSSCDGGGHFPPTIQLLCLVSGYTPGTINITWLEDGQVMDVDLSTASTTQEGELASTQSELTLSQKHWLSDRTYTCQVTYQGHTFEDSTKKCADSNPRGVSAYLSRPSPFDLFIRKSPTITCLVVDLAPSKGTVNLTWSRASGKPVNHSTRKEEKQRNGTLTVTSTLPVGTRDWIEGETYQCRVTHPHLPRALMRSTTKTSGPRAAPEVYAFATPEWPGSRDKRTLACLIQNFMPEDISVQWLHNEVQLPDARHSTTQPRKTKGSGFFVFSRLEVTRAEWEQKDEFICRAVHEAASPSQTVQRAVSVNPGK

Sequence “GGGGCTACTTCATCCGTCCCTCCTAGTGGGTAGCCCC [ARC478]” has a Kd of 0.4 nM.
“GGGGCTACTTGATCCGTCCCTCCTAGTGGGTAGCCCC [ARC477]” gave a Kd of 0.6 nM.
With “GGGGCTACTTTATCCGTTCCTCCTAGTGGGTAGCCCC [ARC1391]” the Kd (2'-OMe at 1-4,7,33-37, PS 8-9, 3' idT [2'-OMe at 1-4,7,33-37, PS linkage 8-9 (internal N = PS, not a base), 3' inverted dT cap (terminal N, left out)], DPBS Mg/Ca, BSA) was 4.4 nM.
Work on “GGGGCTACTTTATCCGTTCCTCCTAGTGGGTAGCCCC [ARC1392]” yielded a Kd (2'-OMe at 1-4,7,33-37, PS 9-10, 3' idT [2'-OMe at 1-4,7,33-37, PS linkage 9-10 (internal N = PS, not a base), 3' inverted dT cap (terminal N, left out)], DPBS Mg/Ca, BSA) of 3 nM.
Work on “GGGGCTACTTTATCCGTTCCTCCTAGTGGGTAGCCCC [ARC1394]” yielded a Kd (2'-OMe at 1-4,7,33-37, PS 11-12, 3' idT [2'-OMe at 1-4,7,33-37, PS linkage 11-12 (internal N = PS, not a base), 3' inverted dT cap (terminal N, left out)], DPBS Mg/Ca, BSA) of 8.1 nM.
“GGGGCTACTTTATCCGTTCCTCCTAGTGGGTAGCCCC [ARC1395]” gave a Kd (2'-OMe at 1-4,7,33-37, PS 12-13, 3' idT [2'-OMe at 1-4,7,33-37, PS linkage 12-13 (internal N = PS, not a base), 3' inverted dT cap (terminal N, left out)], DPBS Mg/Ca, BSA) of 5.7 nM.
In the case of “GGGGCTACTTTATCCGTTCCTCCTAGTGGGTAGCCCC [ARC1396]”, the Kd (2'-OMe at 1-4,7,33-37, PS 13-14, 3' idT [2'-OMe at 1-4,7,33-37, PS linkage 13-14 (internal N = PS, not a base), 3' inverted dT cap (terminal N, left out)], DPBS Mg/Ca, BSA) is reported as 2 nM.
“GGGGCTACTTTATCCGTTCCTCCTAGTGGGTAGCCCC [ARC1397]” showed a Kd (2'-OMe at 1-4,7,33-37, PS 14-15, 3' idT [2'-OMe at 1-4,7,33-37, PS linkage 14-15 (internal N = PS, not a base), 3' inverted dT cap (terminal N, left out)], DPBS Mg/Ca, BSA) of 1.8 nM.
In the case of “GGGGCTACTTTATCCGTTCCTCCTAGTGGGTAGCCCC [ARC1398]”, the Kd (2'-OMe at 1-4,7,33-37, PS 15-16, 3' idT [2'-OMe at 1-4,7,33-37, PS linkage 15-16 (internal N = PS, not a base), 3' inverted dT cap (terminal N, left out)], DPBS Mg/Ca, BSA) is reported as 2.7 nM.
“GGGGCTACTTTATCCGTTCCTCCTAGTGGGTAGCCCC [ARC1399]” gave a Kd (2'-OMe at 1-4,7,33-37, PS 16-17, 3' idT [2'-OMe at 1-4,7,33-37, PS linkage 16-17 (internal N = PS, not a base), 3' inverted dT cap (terminal N, left out)], DPBS Mg/Ca, BSA) of 1.8 nM.
Work on “GGGGCTACTTTATCCGTTCCTCCTAGTGGGTAGCCCC [ARC1400]” yielded a Kd (2'-OMe at 1-4,7,33-37, PS 17-18, 3' idT [2'-OMe at 1-4,7,33-37, PS linkage 17-18 (internal N = PS, not a base), 3' inverted dT cap (terminal N, left out)], DPBS Mg/Ca, BSA) of 2.4 nM.
“GGGGCTACTTTATCCGTTCCTCCTAGTGGGTAGCCCC [ARC1401]” showed a Kd (2'-OMe at 1-4,7,33-37, PS 18-19, 3' idT [2'-OMe at 1-4,7,33-37, PS linkage 18-19 (internal N = PS, not a base), 3' inverted dT cap (terminal N, left out)], DPBS Mg/Ca, BSA) of 2 nM.
Sequence “GGGGCTACTTTATCCGTTCCTCCTAGTGGGTAGCCCC [ARC1402]” has a Kd (2'-OMe at 1-4,7,33-37, PS 19-20, 3' idT [2'-OMe at 1-4,7,33-37, PS linkage 19-20 (internal N = PS, not a base), 3' inverted dT cap (terminal N, left out)], DPBS Mg/Ca, BSA) of 2.1 nM.
For “GGGGCTACTTTATCCGTTCCTCCTAGTGGGTAGCCCC [ARC1404]”, the Kd (2'-OMe at 1-4,7,33-37, PS 21-22, 3' idT [2'-OMe at 1-4,7,33-37, PS linkage 21-22 (internal N = PS, not a base), 3' inverted dT cap (terminal N, left out)], DPBS Mg/Ca, BSA) was 1.8 nM.
“GGGGCTACTTTATCCGTTCCTCCTAGTGGGTAGCCCC [ARC1405]” gave a Kd (2'-OMe at 1-4,7,33-37, PS 22-23, 3' idT [2'-OMe at 1-4,7,33-37, PS 22-23, 3' idT cap after 37 (left out)], DPBS Mg/Ca, BSA) of 2.5 nM.
“GGGGCTACTTTATCCGTTCCTCCTAGTGGGTAGCCCC [ARC1406]” showed a Kd (2'-OMe at 1-4,7,33-37, PS 23-24, 3' idT [2'-OMe at 1-4,7,33-37, PS 23-24, 3' idT cap after 37 (left out)], DPBS Mg/Ca, BSA) of 3.2 nM.
“GGGGCTACTTTATCCGTTCCTCCTAGTGGGTAGCCCC [ARC1407]” gave a Kd (2'-OMe at 1-4,7,33-37, PS 24-25, 3' idT [2'-OMe at 1-4,7,33-37, PS 24-25, 3' idT cap after 37 (left out)], DPBS Mg/Ca, BSA) of 1.8 nM.
With “GGGGCTACTTTATCCGTTCCTCCTAGTGGGTAGCCCC [ARC1408]” the Kd (2'-OMe at 1-4,7,33-37, PS 25-26, 3' idT [2'-OMe at 1-4,7,33-37, PS 25-26, 3' idT cap after 37 (left out)], DPBS Mg/Ca, BSA) was 1 nM.
In the case of “GGGGCTACTTTATCCGTTCCTCCTAGTGGGTAGCCCC [ARC1411]”, the Kd (2'-OMe at 1-4,7,33-37, PS 28-29, 3' idT [2'-OMe at 1-4,7,33-37, PS 28-29, 3' idT cap after 37 (left out)], DPBS Mg/Ca, BSA) is reported as 5.4 nM.
“GGGGCTACTTTATCCGTTCCTCCTAGTGGGTAGCCCC [ARC1412]” gave a Kd (2'-OMe at 1-4,7,33-37, PS 29-30, 3' idT [2'-OMe at 1-4,7,33-37, PS 29-30, 3' idT cap after 37 (left out)], DPBS Mg/Ca, BSA) of 2.5 nM.
“GGGGCTACTTTATCCGTTCCTCCTAGTGGGTAGCCCC [ARC1413]” was tested, and the Kd (2'-OMe at 1-4,7,33-37, PS 30-31, 3' idT [2'-OMe at 1-4,7,33-37, PS 30-31, 3' idT cap after 37 (left out)], DPBS Mg/Ca, BSA) was 3.3 nM.
With “GGGGCTACTTTATCCGTTCCTCCTAGTGGGTAGCCCC [ARC1414]” the Kd (2'-OMe at 1-4,7,33-37, PS 31-32, 3' idT [2'-OMe at 1-4,7,33-37, PS 31-32, 3' idT cap after 37 (left out)], DPBS Mg/Ca, BSA) was 2.9 nM.
Sequence “GGGGCTACTTTATCCGTTCCTCCTAGTGGGTAGCCCC [ARC1415]” has a Kd (2'-OMe at 1-4,7,33-37, multiple PS as printed, 3' idT [2'-OMe at 1-4,7,33-37, PS 9-10,12-13,14-15,18-19,21-22,24-25,27-28,30-31, 3' idT cap after 37 (left out)], DPBS Mg/Ca, BSA) of 1.2 nM.
